The labels stand for the following.
T1: monkey IL-25 expressed with a C-terminal myc-myc-hexahistidine tag (M. fascicularis (cynomolgus monkey))
T1 construct: also called Monkey IL-25-MMH; MfIL-25-MMH
T1 chain: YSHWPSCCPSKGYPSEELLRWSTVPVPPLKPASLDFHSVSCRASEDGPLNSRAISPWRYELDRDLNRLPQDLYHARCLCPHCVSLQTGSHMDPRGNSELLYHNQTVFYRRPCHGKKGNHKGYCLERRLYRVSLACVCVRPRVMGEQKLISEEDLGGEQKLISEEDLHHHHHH

T2: rat IL-25 expressed with a C-terminal myc-myc-hexahistidine tag (rat)
T2 construct: also called Rat IL-25-MMH
T2 chain: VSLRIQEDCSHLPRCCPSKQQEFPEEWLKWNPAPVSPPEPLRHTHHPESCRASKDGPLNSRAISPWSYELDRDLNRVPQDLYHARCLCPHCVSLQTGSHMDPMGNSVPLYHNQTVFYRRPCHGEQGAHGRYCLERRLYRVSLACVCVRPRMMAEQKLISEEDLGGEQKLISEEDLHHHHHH

T3: human IL-25 expressed with a C-terminal myc-myc-hexahistidine tag (human)
T3 construct: also called human IL-25-MMH; hIL-25-MMH
T3 chain: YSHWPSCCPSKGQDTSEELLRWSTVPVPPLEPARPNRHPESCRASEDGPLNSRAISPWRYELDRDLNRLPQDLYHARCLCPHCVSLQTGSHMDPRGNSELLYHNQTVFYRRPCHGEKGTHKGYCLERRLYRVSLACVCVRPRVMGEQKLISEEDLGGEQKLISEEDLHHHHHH

T4: rat IL-25 expressed with a C-terminal myc-myc-hexahistidine tag (rat)
T4 construct: also called rat IL-25-MMH
T4 chain: T2 chain

T5: mouse IL-25 expressed with a C-terminal myc-myc-hexahistidine tag (mouse)
T5 construct: also called mouse IL-25-MMH; mIL-25-MMH
T5 chain: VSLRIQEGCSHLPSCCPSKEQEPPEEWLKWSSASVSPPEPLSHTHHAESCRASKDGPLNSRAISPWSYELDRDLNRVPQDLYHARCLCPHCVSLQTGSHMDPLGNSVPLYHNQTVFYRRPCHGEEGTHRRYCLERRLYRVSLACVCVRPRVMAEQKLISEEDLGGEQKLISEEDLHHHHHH

T6: human IL-25 expressed with a C-terminal myc-myc-hexahistidine tag (human)
T6 construct: also called hIL-25-MMH; Human IL-25-MMH
T6 chain: T3 chain

T7: monkey IL-25 expressed with a C-terminal myc-myc-hexahistidine tag (M. fascicularis (cynomolgus monkey))
T7 construct: also called monkey IL-25-MMH; MfIL-25-MMH
T7 chain: T1 chain

T8: mouse IL-25 expressed with a C-terminal myc-myc-hexahistidine tag (mouse)
T8 construct: also called Mouse IL-25-MMH; mIL-25-MMH
T8 chain: T5 chain

B1: H4H10864P (antibody, human IgG4, V domains shown)
VH: QVQLQESGPGLVKPSETLSLTCTVSGGSISNYFWSWIRQPPGKGLEWIGFNYNSGSTNYNPSLKSRVTISVDTSKNQFSLKLSSVTAADTAVYYCARGYNWNYEIAWFDPWGQGTLVTVSS
VL: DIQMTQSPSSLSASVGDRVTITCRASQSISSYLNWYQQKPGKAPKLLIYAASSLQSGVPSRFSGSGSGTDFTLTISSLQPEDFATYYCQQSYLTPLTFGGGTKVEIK
notes: H4H prefix = human IgG4 Fc
B2: H4H10862P (antibody, human IgG4, V domains shown)
VH: QVQLQESGPGLVKPSETLSLTCTVSGGSISSYFWSWIRQAPGKGLEWIGFIDYSGSTNYNPSLKSRVTISVDTSKNQFSLKLNSVTAADTAVYYCARQEIINFELNWFDPWGQGTLVTVSS
VL: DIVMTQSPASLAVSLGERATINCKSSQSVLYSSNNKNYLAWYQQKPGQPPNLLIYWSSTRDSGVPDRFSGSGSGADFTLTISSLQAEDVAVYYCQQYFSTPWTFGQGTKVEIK
B3: H4H10861P (antibody, human IgG4, V domains shown)
VH: QVQLQESGPGLVKPSETLSLTCTVSGASISNYYWSWIRQPPGKGLEWIGYIFYSGNTNYNPSLKSRVTISVDTSKNQFSLKLSSVTAADTAVYYCARVRFSDYELNWFDPWGQGTLVTVSS
VL: DIVMTQSPDSLAVFLGERATINCRSSQSVFLGSNNKNYLAWYQQKPGQPPKLLIYWASSRESGVPDRFSGSGSGTDFTLTINSLQAEDVAVYYCQQYFITPLTFGGGTKVEIK
B4: H4H10903P (antibody, human IgG4, V domains shown)
VH: QVQLQESGPGLVKPSETLSLTCTVSGGSINSYSWTWIRQPPGKGLEWIGNIYNSENTNYNPSLKSRVTISVDTSKSQVSLKLNSVTAADTAVYYCARTYNWNYEIGAMGVWGQGTTVTVSS
VL: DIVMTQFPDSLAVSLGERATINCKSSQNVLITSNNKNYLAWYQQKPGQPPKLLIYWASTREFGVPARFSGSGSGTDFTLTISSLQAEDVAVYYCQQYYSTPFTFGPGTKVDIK
B5: H4H10901P (antibody, human IgG4, V domains shown)
VH: QLQLQESGPGLVRPSETLSLTCSVSSGSIRSSNYYWGWIRQPPGKGLEWIGNIYYSGNTFYNPSLKGRVTISVDTSKNQFSLKLSSVTATDTAVYYCARQGYSDYELNWFDPWGQGTLVTVSS
VL: DIVMTQSPDSLVLSLGERATFNCKSSQSVLDSSNNKNYLAWYQQKPGQPPKLLIYWASTRESGVPDRFSGSGSGTDFSLTISSLQAEDVALYYCQQFYNSPWTFGQGTKVEIK
B6: H4H10906P (antibody, human IgG4, V domains shown)
VH: QVQLQESGPGLVKPSETLSLTCTVSGGSISSYYWSWIRQPPGKGLEWIGFIYYSGSTNYNPSLKSRVTISVDTSKNQFSLKLSSVTAADTAVYYCARHDSDYELYGMDVWGQGTTVTVSS
VL: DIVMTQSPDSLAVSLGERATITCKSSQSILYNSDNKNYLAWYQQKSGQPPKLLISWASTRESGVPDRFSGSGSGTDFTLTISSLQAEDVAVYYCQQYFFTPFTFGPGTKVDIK

For the first test, the target named is T1, monkey IL-25 expressed with a …. Description: SPR Biacore, antibody captured, 37C. Background: SPR reads the build-up and loss of mass on a sensor chip optically.
Experimental: (§1) Equilibrium dissociation constants (KD values) for IL-25 binding to purified anti-IL-25 antibodies were determined using a real-time surface plasmon resonance biosensor assay on a Biacore 4000 instrument (GE Healthcare). […] All the IL-25 reagents were expressed with a C-terminal myc-myc-hexahistidine tag (referred to herein as “IL-25-MMH”). […] Kinetic association (kₐ) and dissociation (kd) rate constants were determined by fitting the real-time sensorgrams to a 1:1 binding model using Scrubber 2.0c curve fitting software.
Turning to B1, the “100 nM Monkey IL-25-MMH Bound (RU)” value worked out at 94 RU; the affinity, expressed as Kd, was 0.0436 nM; the koff came out at 0.00019 s⁻¹; the kon was 4.35e+06 M⁻¹ s⁻¹. This molecule also came in with a t½ of 61 min.

The next test deals with T2, rat IL-25 expressed with a C-terminal …. Briefly: SPR Biacore, antibody captured, 37C.
In the case of B1, the “100 nM Rat IL-25-MMH Bound (RU)” value turned out to be 1 RU.

In another test the target is T3, human IL-25 expressed with a C-terminal …. Description: SPR Biacore, captured mAb, 25°C.
Experimental: as §1
On to B2, for which the “100 nM Human IL-25-MMH Bound (RU)” value is 56 RU, binding was put at a Kd of 0.0344 nM, the koff was determined as 6.49e-05 s⁻¹ and the kon turned out to be 1.88e+06 M⁻¹ s⁻¹. The t½ was 178 min.
Regarding B3, the “100 nM Human IL-25-MMH Bound (RU)” value was 47 RU, the Kd stood at 0.0116 nM, the koff stood at 2.34e-05 s⁻¹ and the kon amounted to 2.01e+06 M⁻¹ s⁻¹. The t½ stood at 493 min.
The like results for B4 were, in that order, 54 RU, 0.0192 nM, 1.73e-05 s⁻¹, 897000 M⁻¹ s⁻¹ and 670 min.
The matching figures for B5: 62 RU, 0.0254 nM, 5.79e-05 s⁻¹, 2.28e+06 M⁻¹ s⁻¹ and 199 min.
The matching figures for B6: 61 RU, 0.0264 nM, 4.32e-05 s⁻¹, 1.64e+06 M⁻¹ s⁻¹ and 268 min.

The next test concerns the target T4, rat IL-25 expressed with a C-terminal …. Description: SPR Biacore, captured mAb, 25°C and 37°C.
Experimental: as §1
For B2, the binding result is “no binding (tested: 100 nM)”.
Still for that read-out and setting: the entry for B3 is “no binding (tested: 100 nM)”; for B4 it is “no binding (tested: 100 nM)”.
Still for that read-out and setting: the entry for B5 is “no binding (tested: 100 nM)”; for B6 it is “no binding (tested: 100 nM)”.

Another test deals with T5, mouse IL-25 expressed with a C-terminal …. Briefly: SPR Biacore, captured mAb, 25°C and 37°C.
Experimental: as §1
On to B2, for which the binding result is “no binding (tested: 100 nM)”.
The same measure, in the same setting: the entry for B3 is “no binding (tested: 100 nM)”.
The same measure, in the same setting: the entry for B4 is “no binding (tested: 100 nM)”; for B5 it is “no binding (tested: 100 nM)”; for B6 it is “no binding (tested: 100 nM)”.

For a further test, the target named is T2, rat IL-25 expressed with a C-terminal …. Description: SPR Biacore, antibody captured, 25C.
Experimental: as §1
Turning to B1, the “100 nM Rat IL-25-MMH Bound (RU)” value is -1 RU.

For a further test, the target named is T6, human IL-25 expressed with a C-terminal …. Description: competition ELISA, 2 nM hIL-25-MMH binding to coated hIL-17RB-hFc; (*) below theoretical bottom of the assay.
Experimental: (§2) Data analysis was performed using a sigmoidal dose-response model within Prism™ software (GraphPad). […] The absorbance values of the wells containing the highest concentration for each antibody were used to determine the percent maximum blockade.
Turning to B1, the half-maximal inhibitory concentration (IC50) came out at 0.26 nM.

The target of another test is T1, monkey IL-25 expressed with a …. Briefly: cell-based or functional assay.
As to B1, the “IC50, luciferase reporter cells, 12 pM MfIL-25-MMH” value was 2.6e-11 M.

The target in another test is T6, human IL-25 expressed with a C-terminal …. Briefly: cell-based or functional assay.
Take B1: the “IC50, luciferase reporter cells, 5 pM hIL-25-MMH” value came out at 3.6e-11 M.

In a further test the target is T7, monkey IL-25 expressed with a …. Briefly: SPR Biacore, captured mAb, 25°C.
Experimental: as §1
B2: the “100 nM Monkey IL-25-MMH Bound (RU)” value was 58 RU, the dissociation constant Kd was determined as 0.0255 nM, the koff worked out at 5.1e-05 s⁻¹ and the on-rate constant (kon) came to 2e+06 M⁻¹ s⁻¹. For the same molecule, the t½ was 226 min.
B3: the “100 nM Monkey IL-25-MMH Bound (RU)” value came to 48 RU, the Kd was determined as 0.00454 nM, the koff worked out at 1.48e-05 s⁻¹ and the on-rate (kon) came out at 3.26e+06 M⁻¹ s⁻¹. The t½ was 779 min.
For the molecule B4, the “100 nM Monkey IL-25-MMH Bound (RU)” value worked out at 57 RU, the Kd is at most 0.00871 nM, the koff is at most 1e-05 s⁻¹ and the kon is 1.15e+06 M⁻¹ s⁻¹. The same molecule gave a t½ of 1160 min.
On to B5, for which the “100 nM Monkey IL-25-MMH Bound (RU)” value came out at 64 RU, binding was characterised by a dissociation constant (Kd) of 0.0116 nM, the off-rate constant (koff) was determined as 3.06e-05 s⁻¹ and the association rate constant (kon) turned out to be 2.63e+06 M⁻¹ s⁻¹. This molecule displayed a t½ of 377 min.
For the molecule B6, the “100 nM Monkey IL-25-MMH Bound (RU)” value stood at 61 RU, binding was put at a Kd of 0.0141 nM, the koff came to 2.95e-05 s⁻¹ and the kon stood at 2.09e+06 M⁻¹ s⁻¹. The molecule also showed a t½ of 391 min.

For another test, the target named is T6, human IL-25 expressed with a C-terminal …. Description: BLI Octet, hIL-25-MMH captured on anti-Penta-His sensor, 25C. Background: BLI is a label-free optical method that tracks binding on a fibre tip over time.
Experimental: Binding competition between anti-IL-25 monoclonal antibodies was determined using a real time, label-free bio-layer interferometry assay on an Octet QK384 biosensor (Pall ForteBio Corp.).
The biosensors were washed in HBST kinetics buffer in between every step of the experiment. The real-time binding response was monitored during the course of the experiment and the binding response at the end of every step was recorded.
With B1, the “50 ug/mL mAb-1 Binding (nm)” value is 0.84 nm.

The target in the next test is T8, mouse IL-25 expressed with a C-terminal …. Briefly: SPR Biacore, antibody captured, 37C.
For the molecule B1, the “100 nM Mouse IL-25-MMH Bound (RU)” value was 1 RU.

Another test deals with T3, human IL-25 expressed with a C-terminal …. Description: SPR Biacore, captured mAb, 37°C.
Experimental: as §1
In the case of B2, the “100 nM Human IL-25-MMH Bound (RU)” value was 72 RU; the affinity, expressed as Kd, was 0.0879 nM; the koff was 0.00021 s⁻¹; the kon was 2.39e+06 M⁻¹ s⁻¹. For the same molecule, the t½ came to 55 min.
The like results for B3 were, in that order, 63 RU, 0.0268 nM, 7.8e-05 s⁻¹, 2.91e+06 M⁻¹ s⁻¹ and 148 min.
The like results for B4 were, in that order, 65 RU, 0.0508 nM, 7.75e-05 s⁻¹, 1.53e+06 M⁻¹ s⁻¹ and 149 min.
The like results for B5 were, in that order, 65 RU, 0.0651 nM, 0.000208 s⁻¹, 3.19e+06 M⁻¹ s⁻¹ and 56 min.
Consider B6, for which the “100 nM Human IL-25-MMH Bound (RU)” value came to 72 RU, the Kd is 0.0529 nM, the koff worked out at 0.000154 s⁻¹ and the kon stood at 2.9e+06 M⁻¹ s⁻¹. Moreover, the t½ was found to be 75 min.

The next test addresses T8, mouse IL-25 expressed with a C-terminal …. Briefly: SPR Biacore, antibody captured, 25C.
Turning to B1, the “100 nM Mouse IL-25-MMH Bound (RU)” value was -1 RU.

The target in the next test is T6, human IL-25 expressed with a C-terminal …. Description: cell-based or functional assay. This is another data set of the same source.
Consider B1, for which the “IC50 values of antibodies for blocking IL-5 release from Donor #727058-059” value was determined as 1.15 nM and the “IC50 values of antibodies for blocking IL-5 release from Donor #727060” value amounted to 677 pM.

A further test shares this target. Briefly: competition ELISA, 2 nM hIL-25-MMH binding to coated hIL-17RB-hFc. In general terms: An ELISA detects its analyte on a solid surface through an enzyme-linked reagent.
Experimental: as §2
As for B1, the “% Maximum blocking of 200 nM antibody” value turned out to be 88%.

For orientation: Kd means the equilibrium constant for the complex coming apart. As a reminder, the koff is the rate constant with which the complex falls apart. The kon is a measure of how fast the partners come together. Usually t½ stands for how long it takes for the measured level to halve. Usually IC50 stands for the concentration needed to halve the response being measured.

(Values after patent publication US20160083466A1 (Regeneron, published 2016).)
